Source: patent US11168306B2, “Phage wrapping” (priority 2014, dated 2021)
“Also recorded” adds a separate entry of the source.

B1: P100NSP-2: PEG100, non-specific attachment to ligand 2; bioconjugated to phage wrapped with K14-Cys (conjugate)
peptide 1: SECVEVFQNSCDW
peptide 2: KKKKKKKKKKKKKKC
chain: AEGDDPAKAAFNSLQASATEYIGYAWAMVVVIVGATIGIKLFKKFTSKAS
B2: P100SP-P4-2: PEG100, specific attachment, PEG4 linker, ligand 2 (conjugate)
peptide 1: SECVEVFQNSCDW
peptide 2: KKKKKKKKKKKKKKC
chain: B1 chain
B3: 2:1 mixture of P100NSP-2 and P100NSP-1: dual PEGylated ligand combination wrapped on phage (conjugate)
peptide 1: SECVEVFQNSCDW
peptide 2: CALCEFLG
peptide 3: KKKKKKKKKKKKKKC
chain: B1 chain
B4: P100SP-2: PEG100, specific attachment to ligand 2 (conjugate)
peptide 1: SECVEVFQNSCDW
peptide 2: KKKKKKKKKKKKKKC
chain: B1 chain
B5: P100SP-P4-2+P100SP-P4-1: dual PEGylated ligand combination with PEG4 linker, specific attachment, 2:1 ratio, on phage (conjugate)
peptide 1: SECVEVFQNSCDW
peptide 2: CALCEFLG
peptide 3: KKKKKKKKKKKKKKC
chain: B1 chain
B6: P100NSP-P4-2+P100NSP-P4-1: dual PEGylated ligand combination with PEG4 linker, non-specific attachment, on phage (conjugate)
peptide 1: SECVEVFQNSCDW
peptide 2: CALCEFLG
peptide 3: KKKKKKKKKKKKKKC
chain: B1 chain

Each molecule was assayed against T1, PSMA on LNCaP cells (Homo sapiens, UniProt Q04609) (assay: Cell-based phage ELISA, recognition of cell surface PSMA). Settings: PEGylated ligands on phage wrapped with K14-Cys.
T1 construct: specific recognition of PSMA on the surface of LNCaP cells; endogenous in cells; host or cells: LNCaP (also LNCaP CSS); glutaraldehyde-fixed on the plate
T1 sequence (Q04609 whole entry): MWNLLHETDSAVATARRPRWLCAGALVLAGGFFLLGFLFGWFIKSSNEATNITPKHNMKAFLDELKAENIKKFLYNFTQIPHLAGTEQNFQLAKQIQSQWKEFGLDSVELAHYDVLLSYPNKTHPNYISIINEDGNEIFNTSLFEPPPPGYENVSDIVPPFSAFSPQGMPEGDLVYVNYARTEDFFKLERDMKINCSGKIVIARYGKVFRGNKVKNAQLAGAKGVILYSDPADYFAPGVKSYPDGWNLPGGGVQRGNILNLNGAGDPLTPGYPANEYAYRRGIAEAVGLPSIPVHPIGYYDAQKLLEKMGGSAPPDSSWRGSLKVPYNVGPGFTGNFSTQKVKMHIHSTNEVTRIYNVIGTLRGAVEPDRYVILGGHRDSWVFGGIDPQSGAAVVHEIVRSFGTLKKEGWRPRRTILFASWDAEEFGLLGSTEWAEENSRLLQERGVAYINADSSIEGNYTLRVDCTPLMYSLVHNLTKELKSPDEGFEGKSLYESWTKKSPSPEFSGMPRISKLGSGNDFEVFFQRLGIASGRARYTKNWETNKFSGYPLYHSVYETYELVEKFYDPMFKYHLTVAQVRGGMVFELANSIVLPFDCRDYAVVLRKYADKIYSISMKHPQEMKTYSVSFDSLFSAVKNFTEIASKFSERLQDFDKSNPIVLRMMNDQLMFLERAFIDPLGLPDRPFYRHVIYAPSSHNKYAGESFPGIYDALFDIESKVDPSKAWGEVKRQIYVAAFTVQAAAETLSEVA
Protocol: The cell-based ELISA was performed as previously described by Watanabe et. al. with several modifications. See e.g., Watanabe, K.; et al., Clin. Biochem. 2001, 34, 291-295. Cells were detached with Trypsin-EDTA, resuspended in PBS, and then collected by centrifuging at 1200 rpm for 5 min. The cells were further washed with PBS and then concentrated as in the previous step. The concentration of the cells was adjusted to 4.5×10^6 cells/mL in PBS using a hemocytometer, and 100 μL was aliquoted to specific wells of a 96-well microtiter (Nunc Maxisorp). Next, 50 μL of 0.15% of glutaraldehyde in PBS was added to the wells at 4° C., and the solution was gently mixed by pipetting. The ELISA plate was then centrifuged at 1200 rpm for 10 min at 4° C., followed by overnight incubation at 4° C. The cell solution was gently removed, and the wells were blocked with 200 μL/well of blocking buffer containing 100 mM glycine, 1% gelatin and 0.1% w/v BSA (bovine serum albumin) in PBS. The plate was incubated overnight (˜20-22 h) at room temperature.
Separately, phage wrapped with PEG and PEGylated ligands were prepared. Phage (10 nM in 100 μL) and 1 μL of K14-alkyne (525 μM in water) were thoroughly mixed by pipetting ˜25 times. For phage wrapped with PEGylated ligands, phage were mixed with 0.75 μL of K14-Cys (525 μM in water). For mixed wrapping on phage surface, 0.5 μL of K14-alkyne was pre-mixed with 0.75 μL of K14-Cys, and then mixed with 100 μL of 10 nM phage. The solution was shaken at room temperature for 15 min on an orbital shaker. Next, 2 μL of PEGylated ligand (625 μM in water) was added to the appropriate wells. For the dual ligand combinations, the PEGylated ligands were pre-mixed in the desired ratio (2:1 for example), and then 2 μL of the mixture was added to the appropriate wells. The solutions were gently mixed by pipetting, and incubated overnight at 4° C.
Next, the click reaction was performed, as previously described, but with the following modifications.^1,2 Triethylammonium acetate was added to a final concentration of 50 mM, followed by the addition of 1.5 μL of 1 mM azide-functionalized PEG. The solutions were mixed by pipetting. Next, ascorbic acid was added to a final concentration of 1 mM and the solutions were mixed by gently pipetting. Next, copper sulfate was added to a final concentration of 1.5 mM, followed by pipetting to mix the solutions. Water was added to the other wells to maintain a consistent phage concentration. The plate was incubated at room temperature for 30 min.
The wells on the ELISA plate were then incubated with the phage samples. The blocking buffer was removed and the wells were gently washed two times with PBS. Next, the phage solution was added to the respective wells and incubated for 45 min. The phage solution was removed, and the wells were washed three times with 300 μL/well of wash buffer PT (0.05% TWEEN-20 in PBS), once with PBS, and then incubated with horseradish-peroxidase-conjugated anti-M13 antibody (100 μL/well, 1:5000 dilution in PBS) for 40 min. The wells were washed three times with PT and once with PBS. The plate was then developed by incubating with HRP substrate solution (100 μL/well; 1 mg/mL o-phenylenediamine dihydrochloride and 0.02% w/v H2O2) in citric acid buffer (50 mM citric acid, 50 mM Na2HPO4, pH 5.0). The HRP activity was measured spectrophotometrically at 450 nm using a microtiter plate reader (Bio-Tek). The absorbance at 630 nm was subtracted from the absorbance at 450 nm to eliminate background.
B1 was tested, and the “relative binding affinity for cell surface PSMA on LNCaP cells” value (shortened to “relative binding affinity”) was “higher affinity for LNCaP cells compared to P100NSP-1”.
For B2, the “relative binding affinity” value was “most effective PEGylated ligand for recognition of PSMA on the cell surface”.
In the case of B3, the “relative binding affinity” value is reported as “maximize the recognition of PSMA on LNCaP cells”.
With B4 the “relative binding affinity” value was “higher binding affinity for cell surface PSMA than P100NSP-2”.
For B5, the “relative binding affinity” value was “significant increase in binding affinity”.
In the case of B6, the “relative binding affinity” value is reported as “drop in affinity; also recorded: affinity equivalent to P100NSP-P4-2”.

Same assay, conditions: PEGylated ligands on phage wrapped with K14-Cys; listed as P100NSP-2+P100NSP-1
For B3, the “relative binding affinity” value was “modest improvement”.
